Test results: publication PMC4963197, “Phosphorylation acts positively and negatively to regulate MRTF-A subcellular localisation and activity” (eLife, 2016)

Biological target: G-actin (UniProt P68135)
Test: size exclusion chromatography

## MRTF-A(67–199) L74A; L78A
  other: actins (apparent stoichiometry of G-actin binding): 2.2
